Substitutions are numbered along the chain they refer to. Where two headings read alike, the source gives them in different places. Where no end group is shown, it is not given here.
Legend:
[1] = biological target: HCV E1E2 glycoproteins of genotype 2a JFH1 on HCVpp (Hepatitis C virus genotype 2a, UniProt Q99IB8 384-750; Q99IB8 192-383); test: cell-based or functional assay
[2] = biological target: HCV E1E2 glycoproteins of genotype 3a F4/2-35 on HCVpp (Hepatitis C virus genotype 3a); test: cell-based or functional assay
[3] = biological target: HCV E1E2 glycoproteins of isolate 2A2.4 on HCVpp (Hepatitis C virus genotype 2); test: cell-based or functional assay
[4] = biological target: HCV E1E2 glycoproteins of isolate 4.21.16 on HCVpp (Hepatitis C virus genotype 4); test: cell-based or functional assay
[5] = biological target: HCV E1E2 glycoproteins of isolate 6.5.8 on HCVpp (Hepatitis C virus genotype 6); test: cell-based or functional assay
[6] = biological target: HCV E1E2 glycoproteins of isolate 1A20.8 on HCVpp (Hepatitis C virus genotype 1); test: cell-based or functional assay
[7] = biological target: HCV E1E2 glycoproteins of isolate 1B5.23 on HCVpp (Hepatitis C virus genotype 1); test: cell-based or functional assay
[8] = biological target: HCV E1E2 glycoproteins of isolate 2B1.1 on HCVpp (Hepatitis C virus genotype 2); test: cell-based or functional assay
[9] = biological target: HCV E1E2 glycoproteins of isolate 5.15.11 on HCVpp (Hepatitis C virus genotype 5); test: cell-based or functional assay
[10] = biological target: T1, Peptide D3 (also: C-terminal linker GSGK-biotin, biotin attachment not given here); test: peptide ELISA, signal as percent of maximum H6 binding
T1 peptide: QLINTNGSWHINGSGK

[11] = biological target: T1, Peptide D3; test: peptide ELISA, biotinylated peptide on streptavidin, COS7 supernatant, OD 655 nm
[12] = biological target: T2, peptide H6 (AP33 mimotope) (not fully specified (residue 16, C-terminus); printed as VELRNLGGTWRPGSGK-biotin; also: biotin at C-terminal GSGK, site not given here); test: as above
T2 construct: Mimotope for AP33 identified by phage display; captured on streptavidin plates; also called mimotope H6; H6 mimotope
T2 peptide: VELRNLGGTWRPGSGK

[13] = biological target: T3, E2 peptide B1 (not fully specified (residue 16, C-terminus); also: biotin at C-terminal GSGK, site not given here); test: as above
T3 peptide: NLINTNGSWHINGSGK

[14] = biological target: T3, E2 peptide B1; test: peptide ELISA, signal as percent of maximum H6 binding
[15] = biological target: T2, peptide H6 (AP33 mimotope); test: peptide ELISA, biotinylated peptide on streptavidin, COS7 supernatant, OD 655 nm
[16] = biological target: T1, Peptide D3; test: as above
[17] = biological target: T2, peptide H6 (AP33 mimotope); test: as above
[18] = biological target: T1, Peptide D3; test: as above
[19] = biological target: T2, peptide H6 (AP33 mimotope); test: as above
[20] = biological target: T3, E2 peptide B1; test: as above
[21] = biological target: T1, Peptide D3; test: as above
[22] = biological target: T2, peptide H6 (AP33 mimotope); test: as above
[23] = biological target: T3, E2 peptide B1; test: as above
[24] = biological target: T3, E2 peptide B1; test: as above
[25] = biological target: T1, Peptide D3; test: as above
[26] = biological target: T2, peptide H6 (AP33 mimotope); test: as above
[27] = biological target: T3, E2 peptide B1; test: as above
[28] = biological target: T2, peptide H6 (AP33 mimotope); test: as above
[29] = biological target: T3, E2 peptide B1; test: as above
[30] = biological target: T3, E2 peptide B1; test: as above

Sequence of HCV E1E2 glycoproteins of genotype 2a JFH1 on HCVpp (Q99IB8 384-750 limits assumed, chain 1 of 2): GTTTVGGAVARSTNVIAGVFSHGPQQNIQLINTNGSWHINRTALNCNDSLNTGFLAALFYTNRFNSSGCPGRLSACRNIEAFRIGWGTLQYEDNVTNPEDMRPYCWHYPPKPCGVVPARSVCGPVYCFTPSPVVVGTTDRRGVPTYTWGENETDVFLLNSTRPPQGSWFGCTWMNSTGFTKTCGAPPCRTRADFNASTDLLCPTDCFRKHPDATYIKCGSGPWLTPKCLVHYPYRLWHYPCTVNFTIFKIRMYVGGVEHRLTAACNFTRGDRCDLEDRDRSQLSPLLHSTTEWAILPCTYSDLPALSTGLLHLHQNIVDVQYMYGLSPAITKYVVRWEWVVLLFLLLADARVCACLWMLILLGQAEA
Sequence of HCV E1E2 glycoproteins of genotype 2a JFH1 on HCVpp (Q99IB8 192-383 limits assumed, chain 2 of 2): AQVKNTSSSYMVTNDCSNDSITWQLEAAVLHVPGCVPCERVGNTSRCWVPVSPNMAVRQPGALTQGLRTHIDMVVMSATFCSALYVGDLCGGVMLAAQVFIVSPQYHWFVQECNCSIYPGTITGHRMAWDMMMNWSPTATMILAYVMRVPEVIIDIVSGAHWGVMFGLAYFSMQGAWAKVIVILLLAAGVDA

B1: chimeric AP33 antibody (Vh/Vl) (antibody, V domains shown)
VH: EVQLQESGPSLVKPSQTLSLTCSVTGDSITSGYWNWIRKFPGNKLEYMGYISYSGSTYYNLSLRSRISITRDTSKNQYYLQLNSVTTEDTATYYCALITTTTYAMDYWGQGTSVTVS
VL: NIVLTQSPVSLAVSLGQRATISCRASESVDGYGNSFLHWFQQKPGQPPKLLIYLASNLNSGVPARFSGSGSRTDFTLTIDPVEADDAATYYCQQNNVDPWTFGGGTKLEIK
notes: also called chimeric antibody
IC50 of HCVpp infection of Huh-7 cells (luciferase) [1]: 1.1 µg/mL | IC90 of HCVpp infection of Huh-7 cells (luciferase) [1]: 9.31 µg/mL | IC50 of HCVpp infection of Huh-7 cells (luciferase) [2]: 0.48 µg/mL | IC90 of HCVpp infection of Huh-7 cells (luciferase) [2]: 3.2 µg/mL | IC50 of HCVpp infection of Huh-7 cells (luciferase) [3]: 0.88 µg/mL | IC90 of HCVpp infection of Huh-7 cells (luciferase) [3]: 6.67 µg/mL | IC50 of HCVpp infection of Huh-7 cells (luciferase) [4]: < 0.137 µg/mL | IC90 of HCVpp infection of Huh-7 cells (luciferase) [4]: 0.83 µg/mL | IC50 of HCVpp infection of Huh-7 cells (luciferase) [5]: < 0.137 µg/mL | IC90 of HCVpp infection of Huh-7 cells (luciferase) [5]: 3.7 µg/mL | IC50 of HCVpp infection of Huh-7 cells (luciferase) [6]: 1.1 µg/mL | IC90 of HCVpp infection of Huh-7 cells (luciferase) [6]: 11.5 µg/mL | IC50 of HCVpp infection of Huh-7 cells (luciferase) [7]: 1.15 µg/mL | IC90 of HCVpp infection of Huh-7 cells (luciferase) [7]: 11 µg/mL | IC50 of HCVpp infection of Huh-7 cells (luciferase) [8]: 3 µg/mL | IC90 of HCVpp infection of Huh-7 cells (luciferase) [8]: > 15 µg/mL | IC50 of HCVpp infection of Huh-7 cells (luciferase) [9]: 0.088 µg/mL | IC90 of HCVpp infection of Huh-7 cells (luciferase) [9]: 1.11 µg/mL | EC50 (read off the curve) [10]: ~0.02 µg/mL

B2: RHb-h/Vl (humanized heavy chain RHb-h with chimeric AP33 light chain) (antibody, V domains shown)
VH: QVQLQESGPGLVKPSETLSLTCTVSGDSITSGYWNWIRQPPGRALEYMGYISYSGSTYYNLSLRSRITISRDTSKNQYSLRLSSVTAADTAMYYCALITTTTYAMDYWGQGTTVTVS
VL: B1 VL
notes: also called RHb-h/V1; the humanized heavy chain
EC50 (read off the curve) [11]: ~0.02 µg/mL | EC50 (read off the curve) [12]: ~0.02 µg/mL | binding result [13]: no binding (tested: about 500 ng/ml)

B3: humanized AP33 antibody RHb-h/RK2bc (antibody, V domains shown)
VH: B2 VH
VL: EIVLTQSPSSLSASVGDRVTITCRASESVDGYGNSFLHWFQQKPGKAPKLLIYLASNLNSGVPSRFSGSGSRTDFTLTISSLQPEDFATYYCQQNNVDPWTFGQGTKLEIK
notes: also called RHbcdefgh/RK2bc; RHb-h standard
binding result [14]: no binding (tested: at least about 500 ng/ml) | EC50 (read off the curve) [15]: ~0.04 µg/mL | EC50 (read off the curve) [16]: ~0.05 µg/mL | EC50 (read off the curve) [17]: ~0.04 µg/mL

B4: humanized AP33 antibody RH-C/RK2bc (antibody, V domains shown)
VH: QVQLQESGPGLVKPSETLSLTCTVSGDSITSGYWNWIRQPPGRALEWMGYISYSGSTYYNLSLRSRITISRDTSKNQYSLRLSSVTAADTAMYYCALITTTTYAMDYWGQGTTVTVSS
VL: B3 VL
notes: also called RH-C (peptide ELISA, paired with RK2bc)
EC50 (read off the curve) [18]: ~0.05 µg/mL | EC50 (read off the curve) [19]: ~0.04 µg/mL | binding result [20]: no binding (tested: about 2000 ng/ml)

B5: AP33 RH-D/RK2bc (antibody, V domains shown)
VH: B2 VH with M48I
VL: B3 VL
EC50 (read off the curve) [21]: ~0.04 µg/mL | EC50 (read off the curve) [22]: ~0.04 µg/mL | binding result [23]: no binding (tested: about 900 ng/ml)

B6: AP33 RH-E/RK2bc (antibody, V domains shown)
VH: B2 VH with I67V
VL: B3 VL
binding result [24]: no binding (tested: about 800 ng/ml)

B7: humanized AP33 antibody RH-H/RK2bc (antibody, V domains shown)
VH: B2 VH with L97R
VL: B3 VL
notes: also called RH-H (peptide ELISA, paired with RK2bc)
binding result [14]: no binding (tested: at least about 500 ng/ml) | EC50 (read off the curve) [25]: ~0.04 µg/mL | EC50 (read off the curve) [26]: ~0.03 µg/mL

B8: AP33 RH-B/RK2bc (antibody, V domains shown)
VH: B4 VH with T30S, W47Y
VL: B3 VL
binding result [27]: no binding (tested: about 800 ng/ml)

B9: humanized AP33 antibody RH-G/RK2bc (antibody, V domains shown)
VH: B2 VH with Y78F
VL: B3 VL
EC50 (read off the curve) [28]: ~0.03 µg/mL | binding result [29]: no binding (tested: about 700 ng/ml)

B10: humanized AP33 antibody RH-F/RK2bc (antibody, V domains shown)
VH: B2 VH with R71V
VL: B3 VL
binding result [30]: no binding (tested: about 500 ng/ml)
